Assay: soluble on expression in E. coli; label from the status in PepcDB or PDB records

Sequence	soluble on expression in E. coli
MAMITGGELVVRTLIKAGVEHLFGLHGSHIDTIFQACLDHDVPIIDTRHEAAAGHAAEGYARAGAKLGVALVTAGGGFTNAVTPIANAWLDRTPVLFLTGSGALRDDETNTLQAGIDQVAMAAPITKWAHRVMATEHIPRLVMQAIRAALSAPRGPVLLDLPWDILMNQIDEDSVIIPDLVLSAHGARPDPADLDQALALLRKAERPVIVLGSEASRTARKTALSAFVAATGVPVFADYEGLSMLSGLPDAMRGGLVQNLYSFAKADAAPDLVLMLGARFGLNTGHGSGQLIPHSAQVIQVDPDACELGRLQGIALGIVADVGGTIEALAQATAQDAAWPDRGDWCAKVTDLAQERYASIAAKSSSEHALHPFHASQVIAKHVDAGVTVVADGALTYLWLSEVMSRVKPGGFLCHGYLGSMGVGFGTALGAQVADLEAGRRTILVTGDGSVGYSIGEFDTLVRKQLPLIVIIMNNQSWGATLHFQQLAVGPNRVTGTRLENGSYHGVAAAFGADGYHVDSVESFSAALAQALAHNRPACINVAVALDPIPPEELILIGMDPFGSHHHHHH	soluble
GHMTKLNQESTAPKVLFTGVVDARGERAVLALGGSLAGSAAEASHLVTDRIRRTVKFLCALGRGIPILSLDWLHQSRKAGFFLPPDEYVVTDPEQEKNFGFSLQDALSRARERRLLEGYEIYVTPGVQPPPPQMGEIISCCGGTYLPSMPRSYKPQRVVITCPQDFPHCSIPLRVGLPLLSPEFLLTGVLKQEAKPEAFVLSPLEMSST	soluble
MGSDKIHHHHHHMICMAVGIASLLFNIEEALNICESIKQITHLEIGIDNISECSELCKYKERISKLGLSIGIHLPMELNTCENIEYIRNSWINFIEKIEFELKGFDLRYFNLHLGYVMTNRVRKNRDKYLGNSVDFLDKLNTNSYVCIENTYSKGGDFSNIGNISYDFEYIFKRIKNSKICFCYDTGHCLIDEDAYVKNLKDKIRLIHLSDNDGINDTHVGIGRGILSEEGIKEVLTLDAEYLVLEINYEDIEDTISKLNNIVGEG	not soluble
MLGAIIGDIVGSVYEWNNIKTKDFPLFRKDCFFTDDTVMTCAVAEAIMNGGQKDDFIDAMKKYGRMYPNADYGARFNAWLNSDNREPYNSFGNGSAMRISPCAWIMDCGFYAKTGIWPSSRGLTSLSAEVTHNHPEGVKGAMATADAIFLCRFYFGGYCREYEQSINDNPTECKRRIKDYIEKEYDYNLSQTLDEIRPNYRFNETCQETVPQAIIAFLESRDFEDAIRNAISLGGDSDTLAAITCSIAEAAYGIPDWIKDKAYSYLDEPLKDVVRRWENRIKAY	not soluble
GPGSMELNQLELFVASTEHTRSDAWRYLRRLRVLDCKIEEGFDRLHEIAVQLSGTDSDGNLVDNQGNGTLQPDRKKRGRPPLCKNAFTATPYNVGQSPDSSVLLVDPAVANLHEEFRKHSRSVKRYALEREQIAEELVASGKELTEYLEARMREFRATFSISD	soluble
MGSDKIHHHHHHMRILLSVSRFEDELIEILDRLDETYEIFADNDCFEILKDRIPRIRPFERDDFDLLYLNWRDLPSEKREEKILSTIDENRTLLFLKAIKNYREKLVVTTLEDLKLTFSEIERAGDVSLQTRRYLLLKGLAHFLKVHSEVLESLSDLFFIKDWKAIVLERLQEGIKAPVSLLPVSIPPELVEDIGLASHLIRFLPQKACVLVKNGKIVYASSTGDLPEIEGGVFALKGVFRGEKKFDFILAEDFEGDVEGLRIKDLLHQEEGLVLLGASGYLREPVPTNDFTEVLSMHPVFDSCAVTKEGKLVLHVVELNRSDVINALEKIDLSGTEVAFNFPISDEEKAELKQKGVKKVSWIDSRRIWRRC	not soluble
QTIFRVQTPYTHNGYMKTECYAFDFAPDRTLRVLAEAAKVSYKAGKQSESDRKLLGDFLNFCPIISIEGSRMKPYDVNTMLGQLKRAQIEKVVQDGFENGALYNDELLKLTEVELHDFDELKGIIGKTKAMAKSGDIDINHQGLTHEQYEEKERLEKRKKKGLTPEEKKRLDELKAKGDQRREAISILRGISIRMPLMLYGAEMKDEDKELTIDNFANLVDEQSWQEFMPRGVTKAVFRRFKRYYDPDIFREAGKRIREMARMADKFTIEERIGRIASIFSTFRNPDKETVLTPWRVVNMHLGDSIGGYCFMSEDFSTPIALPRYIEHQGITNEVFHPKSIILEINSKSGLYPLYAAYNIYRTRVEEAREKYGDVTRAFALQLWDRTLEENIFVVCKTPMARYITMRTLRGFRDVVTHTEHYPDLIENITSQPDSVVNMLRSGKRFWKINNDENMKIDAIIGNPPYQVMNQGKGNGSDPIYHKFFDLAMVLAPQGTLIHPARFLFNAGKTPKEWNEKMLSDKHYRVVDYWPNSAEVFPTVDVKGGIATSYWNKKMILGPIGMFSAFDELHHILYKVEQTNPLPFSNLVAPRELYRITDELYQEHPDLNGRQSAGHKYSFGANIFDVFPEVFFDEYPQGREEKMACIYGRANKQRCYKWCKRSYITHPENFAKYKVIIPKTNGSGAIGE	not soluble
MSLRLYFVRHGKTQWNLEGRLQGSKGDSPLLKESIEQVSELGHYLSDTHFDLVLSSDLPRAKKTTELIMESQKTKAKITYTKDLREWQLGKLEGQKLSIIQAIYPKEMDAFRHNLANFRANNFQAESVYHTTKRVADLVRTLKDSSMKNVLLVGHGANLTASIRSLLGFEPGLLRKAGGLDNASVTILETDDCEHFTLKSWNDTSYRTQVNKISEGHHHHHH	soluble
MAEVLMYGLSTCPHCKRTLEFLKREGVDFEVIWIDKLEGEERKKVIEKVHSISGSYSVPVVVKGDKHVLGYNEEKLKELIRG	soluble
MSLFINMYRQLLSLPLSALVKNNPIPANPIEELSLNIHQPIVYVLPYTSQTDFVIFRRNCLALGLPDPAEKNEINGVKLPRYVYLDEGRRIFKSKGAKDETTTIFNKYLELHRTSESLDVQLIPVSVLWGRSPGQEDKSDLPNLRLLNGIQKTFAAIWFGRDTFVRFSQAVSLRYMVVEHGSDEKIAQKLARVAKMHFAKQRISATGPRLPNRQAMFNKLLQSEAIRRAIEDEAKSKNISIEKAQKEAYKILDEIAADVSHSSLRAVDRFLRWLWNKLYSGINVQNSNRVRKLALEGHEIVYVPCHRSHIDYLLLSYVLYHQGLVPPHIAAGINLNFWPIGRMFRSWGAFFIRRTFKGNRLYSAIFREYLSELFHRGYSVEYFIEGGRSRTGRLLAPKTGMMSMTLQALQHSQTRPISIVPVYVGYEHVLEVDTYAKELRGAAKEKENAGLVLRVIKKLRNLGQGFVNFGEPITLSNYLSQHFPDWKEQNHEEKPQWFTPAVNNISKQVMININKAAAVNSMNLVGTALLSSRQRALSREQLLEQLSSYQQLLQNVPYSTDVVLPNVTPQAMLEHVLALDRIGVLIEKDNFGEIVRLERSSAVLMTYYRNNIQHLFVLPSLVASIILHYEAIQKDLLLDAIRKIYPFLQGELFLHFNEDELNVQIHQIINEFARQSVINSNDNFLSINKSKVRILQLWSAGMLEILQRYYITVTILQKQPAISRAELEKESQLVAQRLSVLHGINAPEFFDKAVFSSFIANLKEQRYFDESGYTVLDKIEELASTLSHLISTEICLTVKGTIEKSEDLSSEGHHHHHH	soluble
MSLTTIDPRSELVDGRRRAGARVDAVGAAALLSAAARVGVVCHVHPDADTIGAGLALALVLDGCGKRVEVSFAAPATLPESLRSLPGCHLLVRPEVMRRDVDLVVTVDIPSVDRLGALGDLTDSGRELLVIDHHASNDLFGTANFIDPSADSTTTMVAEILDAWGKPIDPRVAHCIYAGLATDTGSFRWASVRGYRLAARLVEIGVDNATVSRTLMDSHPFTWLPLLSRVLGSAQLVSEAVGGRGLVYVVVDNREWVAARSEEVESIVDIVRTTQQAEVAAVFKEVEPHRWSVSMRAKTVNLAAVASGFGGGGHRLAAGYTTTGSIDDAVASLRAALGEGHHHHHH	soluble
ELLPEIFRQTVEHAPIAISITDLKANILYANRAFRTITGYGSEEVLGKNESILSNGTTPRLVYQALWGRLAQKKPWSGVLVNRRKDKTLYLAELTVAPVLNEAGETIYYLGMHRDTSELH	soluble
MGHHHHHHSHREMVLQFLAFSRVAQDCRGTSWPKTVYFTFQFYRFPPATTPRLQLVQLDEAGQPSSGALTHILVPVSRDGTFDAGSPGFQLRYMVGPGFLKPGERRCFARYLAVQTLQIDVWDGDSLLLIGSAAVQMKETSHIFSVSQ	not soluble
MKAAHIIDEARLGIMLNDLRLPTIKTLWPQFAEQADKEGWPAARFLSAIAEHELAERDRRRVERHLAEAHLPPGKTLDSFAFDAVPMVSKAQVMAMTAGDSWLAKGANILLFGPPGGGKSHLAAAIGLALIENGWRVLFTRTTDLVQKLQVARRELQLESAIAKLDKFDLLILDLEHHHHHH	not soluble
MGSDKIHHHHHHMEYIVRTHKIGIYEKALPKNLSWQDRLSIAKACGFDFVEISIDETDERLARLDWSKAERIELVTAIISTGITIPSMCLSGHRRFPFGSRDEATRQKAFEIMKKAIQLAVDLGIRTIQLAGYDVYYEEQDEGTIQRFQQGLEWAVKLAASHQVTIAVEIMDTQFISSISRWKKWDNIIRSPWFTVYPDLGNLSAWNENVSEELKLGIDKISAIHLKDTYKVTTTSKGQFRDVPFGAGCVDFVQCFRILSELNYRGAFLVEMWTEKAEEPITEIINARRWIEQKMKEGGFQC	not soluble
MTDTRKFKATDLFSFNNINLDPLTETFNISFYLSYLNKWPSLCVVQESDLSDPTLMGYIMGKSEGTGKEWHTHVTAITVAPNSRRLGLARTMMDYLETVGNSENAFFVDLFVRASNALAIDFYKGLGYSVYRRVIGYYSNPHGKDEDSFDMRKPLSRDVNRESIRENGENFKCSPADVSF	soluble
MQKPKLGKIKLLSAKEQVAAVLRKAILSRELVEGQEITLEGIAGMVGVSSMPVREAFQILAADGLIKVRPNKGAVVLGINEQTIREHYEIRALLESEAVAKASRPGSDISRIAQVHYAAEKALAENNSAEYSDLNQAFHMEIWNVAGNEKMKMLLCNMWNGLSMGHKVTEEEYAVISIQEHKSILQALELHDETLARQRMREHIIRSMENMLTRYVGDPSA	not soluble
MGSDKIHHHHHHMKTQYFSDVDETVITTTLSNGLRLQVVPRPAYHKSYAIMTTDYGSIDTQFAPDGKQMVTYPAGIAHFLEHKLFEKEDHDAFDLFGETGASANAFTSATKTSFLFSTTTQLTKNLQILLDFVQTPFFSKASVAKEQGIIGSEIQMYQDDPGWRGYAGLLENLFPNHPAHVDVAGTVASIAQITPEMLYTIHRVFYQPSNMTLIVVGNIDADAIMAFVAANQAAKQFPAPQAIVRGVHADLQTDDIVPYRQLEMPISRPKTLVGIKGQVAIPMTAEGWRYQLTIRLLLEVLFGDSSQLYQDWYDRGLIDDSFDFDFTNQRSFSYGLVGGDTDDPHALSDAIKHVLLNAATQPDLTRDRVALIKRASLGKYYAGLNGLNGVANQLSALSFGQASLFDFPEILSSITLADLQAMIDQVFQAKALTVLDMIPEAD	not soluble
MSLSNFKSISLTYRKAPLEIRERVALNEAECKSLMLRIKDFTDTAELLILSTCNRTEIYYTSNEDYSNDIIKLLGVEKNITGLIQQKEYFEIYNEQADAVLHLFEVGIGLDSQVVGDMQIVNQVKYAYQWSADLNLAGPFLHRLMHTIFFTNKRVVQETAFRDGAASVSYATVELSEELLSATPNANILIVGLGEIGADVCRNFKANTSFKNITLTNRSPLKSEALAAECGIEHVPFETLWEAVAKADLVISSVAKEEPLFTKEEIQKLSILSHKYFIDLSVPRSVDARAEELPGIIVYDIDHIQNRSNEALENRLNAIPHVRKIILDSIVEFNEWSKEMEVSPTINKLKNALEQIRKEELSRFVKQLSDEEAKKVDEITKSIMQKIIKLPVLQLKAACKRGEAETLIDVLNDLFNLDKQPEQIREGHHHHHH	soluble

Source: the DeepSol protein solubility set
